The target in one assay is T1, Human ACVR2A (human, UniProt P27037 20-135, limits assumed).
T1 construct: also called activin receptor, type II A
Kind of assay: ELISA. The method in brief:
(§1)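 Binding signal was read by ELISA after ACVR2A-specific monoclonal antibodies were tested against human ACVR2A and mouse ACVR2A, with human Fc as the negative control.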
(ELISA stands for enzyme-linked immunosorbent assay.)

The target in the next assay is Mouse ACVR2A (mouse, UniProt P27038 20-135, limits assumed). The assay can be described thus: ELISA. The method in brief: as §1
Mouse ACVR2A, sequence (P27038 20-135 limits assumed): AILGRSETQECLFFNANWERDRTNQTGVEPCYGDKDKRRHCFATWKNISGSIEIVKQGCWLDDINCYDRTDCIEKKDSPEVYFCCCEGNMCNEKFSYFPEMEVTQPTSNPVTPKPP
The next assay concerns the target T2, Goat anti-Human Kappa.
T2 construct: Positive control of the ELISA; also called biotinylated goat anti-human kappa light chain
Kind of assay: ELISA, positive control. Summed up:
as §1
Further: test concentration or dose not given here.

T1 sequence (P27037 20-135 limits assumed): as the sequence (P27038 20-135 limits assumed) above, with R20K, I73V counted along it

B1: 371_A07 (antibody, V domains shown)
VH: EVQLLESGGGLVQPGGSLRLSCAASGFTFSDYSMNWVRQAPGKGLEWVSNINYNGGYKSYADSVKGRFTISRDNSKNTLYLQMNSLRAEDTAVYYCARSANWHDTALDYWGQGTLVTVSS
VL: DIQMTQSPSSLSASVGDRVTITCRASQSILSYLNWYQQKPGKAPKLVIYATTSRASGVPSRFSGSGSGTDFTLTISSLQPEDFATYYCQQSYDLPLTFGGGTKVEIK
In the case of B1, the optical density with Human ACVR2A was found to be 2.88 OD; with Mouse ACVR2A it was 3.06 OD; with Goat anti-Human Kappa, 3.65 OD.

B2: 371_A12 (antibody, V domains shown)
VH: EVQLLESGGGLVQPGGSLRLSCAASGFTFDSYSMNWVRQAPGKGLEWVAGINYNSGYTSYADSVKGRFTISRDNSKNTLYLQMNSLRAEDTAVYYCARSANWHDTALDYWGQGTLVTVSS
VL: DIQMTQSPSSLSASVGDRVTITCRASQSILSYVNWYQQKPGKAPKLVIYAATSLASGVPSRFSGSGSGTDFTLTISSLQPEDFATYYCQQSYDTPLTFGGGTKVEIK
For the molecule B2, the optical density with Human ACVR2A came out at 3.17 OD; with Mouse ACVR2A, 3.3 OD; in the assay with Goat anti-Human Kappa it was 3.63 OD.

B3: 371_C03 (antibody, V domains shown)
VH: EVQLLESGGGLVQPGGSLRLSCAASGFTFSSYSMNWVRQAPGKGLEWVSNINYNGGYKGYADSVKGRFTISRDNSKNTLYLQMNSLRAEDTAVYYCARSANWHDTALDYWGQGTLVTVSS
VL: DIQMTQSPSSLSASVGDRVTITCRASQSILSYLNWYQQKPGKAPKLVIYATTSRASGVPSRFSGSGSGTDFTLTISSLQPEDFATYYCQQSYSTPLTFGGGTKVEIK
As for B3, the optical density with Human ACVR2A was 3.01 OD; in the assay with Mouse ACVR2A it was 3.24 OD; with Goat anti-Human Kappa it was 3.6 OD.

B4: 371_G10 (antibody, V domains shown)
VH: EVQLLESGGGLVQPGGSLRLSCAASGFTFSSYSMNWVRQAPGKGLEWVSGINYNGGYKSYADSVKGRFTISRDNSKNTLYLQMNSLRAEDTAVYYCARSANWHDTALDYWGQGTLVTVSS
VL: DIQMTQSPSSLSASVGDRVTITCRASQSISSYVNWYQQKPGKAPKLLIYAATSRHSGVPSRFSGSGSGTDFTLTISSLQPEDFATYYCQQSDDSPLTFGGGTKVEIK
As for B4, the optical density with Human ACVR2A was 1.65 OD; with Mouse ACVR2A, 1.92 OD; in the assay with Goat anti-Human Kappa, 3.41 OD.

B5: 371_H09 (antibody, V domains shown)
VH: EVQLLESGGGLVQPGGSLRLSCAASGFTFDSYSMNWVRQAPGKGLEWVSNINYNGGYTSYADSVKGRFTISRDNSKNTLYLQMNSLRAEDTAVYYCARSANWHDTALDYWGQGTLVTVSS
VL: DIQMTQSPSSLSASVGDRVTITCRASQSILTYVNWYQQKPGKAPKLVIYAATSLASGVPSRFSGSGSGTDFTLTISSLQPEDFATYYCQQSYDSPLTFGGGTKVEIK
Take B5: the optical density with Human ACVR2A worked out at 2.96 OD; in the assay with Mouse ACVR2A, 3.23 OD; with Goat anti-Human Kappa, 3.66 OD.

B6: 371_F01 (antibody, V domains shown)
VH: EVQLLESGGGLVQPGGSLRLSCAASGFTFSSYSMNWVRQAPGKGLEWVAGINYNGGYTGYADSVKGRFTISRDNSKNTLYLQMNSLRAEDTAVYYCARSANWHDTALDYWGQGTLVTVSS
VL: DIQMTQSPSSLSASVGDRVTITCRASQSILTYVNWYQQKPGKAPKLVIYAATSLASGVPSRFSGSGSGTDFTLTISSLQPEDFATYYCQQSYNNPLTFGGGTKVEIK
For B6, the optical density with Human ACVR2A turned out to be 2.41 OD; with Mouse ACVR2A, 2.62 OD; with Goat anti-Human Kappa it was 3.68 OD.

B7: 371_D09 (antibody, V domains shown)
VH: EVQLLESGGGLVQPGGSLRLSCAASGFTFSSYSMNWVRQAPGKGLEWVSNINYNSGYTGYADSVKGRFTISRDNSKNTLYLQMNSLRAEDTAVYYCARSANWHDTALDYWGQGTLVTVSS
VL: DIQMTQSPSSLSASVGDRVTITCRASQSILTYLNWYQQKPGKAPKLVIYAATSRASGVPSRFSGSGSGTDFTLTISSLQPEDFATYYCQQSYNNPLTFGGGTKVEIK
Turning to B7, the optical density in the assay with Human ACVR2A amounted to 2.89 OD; with Mouse ACVR2A it was 2.94 OD; with Goat anti-Human Kappa, 2.17 OD.

B8: 371_D06 (antibody, V domains shown)
VH: EVQLLESGGGLVQPGGSLRLSCAASGFTFDDYSMNWVRQAPGKGLEWVAGINYNGGYTSYADSVKGRFTISRDNSKNTLYLQMNSLRAEDTAVYYCARSANWHDTALDYWGQGTLVTVSS
VL: DIQMTQSPSSLSASVGDRVTITCRASQSIISYVNWYQQKPGKAPKLLIYAATSRASGVPSRFSGSGSGTDFTLTISSLQPEDFATYYCQQSYSTPLTFGGGTKVEIK
On to B8, for which the optical density with Human ACVR2A came to 1.48 OD; in the assay with Mouse ACVR2A, 1.55 OD; with Goat anti-Human Kappa, 3.32 OD.

B9: 371_B06 (antibody, V domains shown)
VH: EVQLLESGGGLVQPGGSLRLSCAASGFTFDSYSMNWVRQAPGKGLEWVAGINYNGGYKSYADSVKGRFTISRDNSKNTLYLQMNSLRAEDTAVYYCARSANWHDTALDYWGQGTLVTVSS
VL: DIQMTQSPSSLSASVGDRVTITCRASQSILTYVNWYQQKPGKAPKLVIYAATSRHSGVPSRFSGSGSGTDFTLTISSLQPEDFATYYCQQSYNLPLTFGGGTKVEIK
As to B9, the figures for the optical density in the assay with Human ACVR2A, in the assay with Mouse ACVR2A and with Goat anti-Human Kappa were 2.69 OD, 2.71 OD and 3.3 OD, respectively.

B10: 371_F06 (antibody, V domains shown)
VH: EVQLLESGGGLVQPGGSLRLSCAASGFTFDSYSMNWVRQAPGKGLEWVANINYNGGYTSYADSVKGRFTISRDNSKNTLYLQMNSLRAEDTAVYYCARSANWHDTALDYWGQGTLVTVSS
VL: DIQMTQSPSSLSASVGDRVTITCRASQSIVSYLNWYQQKPGKAPKLVIYAATSRHSGVPSRFSGSGSGTDFTLTISSLQPEDFATYYCQQSYNSPLTFGGGTKVEIK
With B10, the optical density with Human ACVR2A turned out to be 2.41 OD; with Mouse ACVR2A, 2.79 OD; with Goat anti-Human Kappa, 3.46 OD.

B11: 371_G05 (antibody, V domains shown)
VH: EVQLLESGGGLVQPGGSLRLSCAASGFTFDSYSMNWVRQAPGKGLEWVSGINYNSGYTGYADSVKGRFTISRDNSKNTLYLQMNSLRAEDTAVYYCARSANWHDTALDYWGQGTLVTVSS
VL: DIQMTQSPSSLSASVGDRVTITCRASQSISSYLNWYQQKPGKAPKLLIYAVTSRASGVPSRFSGSGSGTDFTLTISSLQPEDFATYYCQQSYSSPLTFGGGTKVEIK
With B11, the optical density in the assay with Human ACVR2A stood at 1.25 OD; in the assay with Mouse ACVR2A, 1.33 OD; with Goat anti-Human Kappa it was 3.08 OD.

B12: 372_B04 (antibody, V domains shown)
VH: EVQLLESGGGLVQPGGSLRLSCAASGFTFDSYGMNWVRQAPGKGLEWVANINYNGGYTSYADSVKGRFTISRDNSKNTLYLQMNSLRAEDTAVYYCARSANWHDTALDYWGQGTLVTVSS
VL: DIQMTQSPSSLSASVGDRVTITCRASQSILSYVNWYQQKPGKAPKLVIYAATSLASGVPSRFSGSGSGTDFTLTISSLQPEDFATYYCQQSYDSPLTFGGGTKVEIK
B12: the optical density turned out to be 2.61 OD with Human ACVR2A, 3.12 OD with Mouse ACVR2A and 3.59 OD with Goat anti-Human Kappa.

B13: 371_B07 (antibody, V domains shown)
VH: EVQLLESGGGLVQPGGSLRLSCAASGFTFDSYSMNWVRQAPGKGLEWVAGINYNGGYTSYADSVKGRFTISRDNSKNTLYLQMNSLRAEDTAVYYCARSANWHDTALDYWGQGTLVTVSS
VL: DIQMTQSPSSLSASVGDRVTITCRASQSILTYVNWYQQKPGKAPKLLIYAATSRASGVPSRFSGSGSGTDFTLTISSLQPEDFATYYCQQSYELPLTFGGGTKVEIK
For B13, the optical density with Human ACVR2A came to 2.78 OD; with Mouse ACVR2A it was 3.04 OD; with Goat anti-Human Kappa, 3.33 OD.

B14: 371_A08 (antibody, V domains shown)
VH: EVQLLESGGGLVQPGGSLRLSCAASGFTFSSYGMHWVRQAPGKGLEWVSSINYNGGYTSYADSVKGRFTISRDNSKNTLYLQMNSLRAEDTAVYYCARSANWHDTALDYWGQGTLVTVSS
VL: DIQMTQSPSSLSASVGDRVTITCRASQSILSYLNWYQQKPGKAPKLVIYAATSRASGVPSRFSGSGSGTDFTLTISSLQPEDFATYYCQQSYELPLTFGGGTKVEIK
In the case of B14, the figures for the optical density with Human ACVR2A, with Mouse ACVR2A and in the assay with Goat anti-Human Kappa were 1.06 OD, 1.16 OD and 2.44 OD, respectively.

B15: 372_A04 (antibody, V domains shown)
VH: EVQLLESGGGLVQPGGSLRLSCAASGFTFDSYSMNWVRQAPGKGLEWVSGINYNSGYTSYADSVKGRFTISRDNSKNTLYLQMNSLRAEDTAVYYCARSANWHDTALDYWGQGTLVTVSS
VL: DIQMTQSPSSLSASVGDRVTITCRASQSILTYLNWYQQKPGKAPKLVIYAATSRASGVPSRFSGSGSGTDFTLTISSLQPEDFATYYCQQSYETPLTFGGGTKVEIK
With B15, the optical density is 3.2 OD with Human ACVR2A, 3.4 OD with Mouse ACVR2A and 3.64 OD with Goat anti-Human Kappa.

B16: 371_F04 (antibody, V domains shown)
VH: EVQLLESGGGLVQPGGSLRLSCAASGFTFDSYSMNWVRQAPGKGLEWVAGINYNSGYKGYADSVKGRFTISRDNSKNTLYLQMNSLRAEDTAVYYCARSANWHDTALDYWGQGTLVTVSS
VL: DIQMTQSPSSLSASVGDRVTITCRASQSILSYLNWYQQKPGKAPKLLIYAATSRHSGVPSRFSGSGSGTDFTLTISSLQPEDFATYYCQQSYNNPLTFGGGTKVEIK
B16: the optical density in the assay with Human ACVR2A stood at 2.95 OD; in the assay with Mouse ACVR2A it was 3.1 OD; in the assay with Goat anti-Human Kappa it was 3.66 OD.

B17: 371_F08 (antibody, V domains shown)
VH: EVQLLESGGGLVQPGGSLRLSCAASGFTFDDYSMNWVRQAPGKGLEWVSGINYNGGYTGYADSVKGRFTISRDNSKNTLYLQMNSLRAEDTAVYYCARSANWHDTALDYWGQGTLVTVSS
VL: DIQMTQSPSSLSASVGDRVTITCRASQSIVSYVNWYQQKPGKAPKLVIYAATSRHSGVPSRFSGSGSGTDFTLTISSLQPEDFATYYCQQSYESPLTFGGGTKVEIK
For the molecule B17, the values for the optical density with Human ACVR2A, with Mouse ACVR2A and with Goat anti-Human Kappa were 2.2 OD, 2.55 OD and 3.43 OD, respectively.

The record behind these values is US20210380703A1 (RIGEL PHARMACEUTICALS, published 2021).
